{
  "source": "patent US20250122242A1",
  "about": "“SELECTION SYSTEMS, PEPTIDES DETERMINED THEREWITH, AND METHODS OF USING SAME” (Wisconsin Alumni Research Foundation, priority 2023, published 2025)",
  "key": {"Aβ42-T7n": {"biological_target": "Aβ42-T7n (UniProt P00573+P05067)", "sequence (P05067+P00573 fused)": "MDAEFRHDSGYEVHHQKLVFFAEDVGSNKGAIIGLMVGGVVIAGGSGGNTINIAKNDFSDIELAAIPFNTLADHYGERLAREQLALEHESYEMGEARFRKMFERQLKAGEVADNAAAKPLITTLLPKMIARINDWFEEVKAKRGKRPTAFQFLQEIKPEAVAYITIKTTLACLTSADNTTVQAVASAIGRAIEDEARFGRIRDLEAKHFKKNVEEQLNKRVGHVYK", "conditions": "clonal SP encoding the sequence", "source_text": "Therefore, we turned to a split-T7 RNA polymerase (T7 RNAP) reporter used to evolve proteins with improved soluble expression.^33 In our new selection, host E. coli express an aggregation-prone protein (APP) fused to the N-terminal half of split-T7 RNAP (T7n). When the APP-T7n fusion is translated, it misfolds due to the APP, preventing T7n from associating with the C-terminal half of split-T7 RNAP (T7c; FIG. 2A). If a SP-encoded inhibitor binds to and prevents APP aggregation, the fused T7n will remain folded and join with T7c to produce full-length T7 RNAP. The reconstituted T7 RNAP then transcribes gIII, which we place under control of the T7 promoter (PT7), producing pill and allowing the SP to reproduce (FIGS. 2A and 2B).\nWe used the SICLOPPS method to biosynthesize cyclic peptides that can be selected in E. coli.^15 In SICLOPPS, a precursor fusion consisting of the C-terminal half of the Ssp DnaE split intein, the peptide sequence to be cyclized, and the N-terminal half of the same split intein undergoes intein splicing after translation to produce head-to-tail cyclized peptides (FIG. 7).\nStrain S206035 was used for plasmid cloning, amplification, and phage assays. Strain S220835 was used for SP cloning and plaque assays. Plasmids and SPs were cloned by USER assembly or blunt-end ligation. Competent cells were prepared and transformed using the TSS method. Phage propagation and plaque assays were performed as previously described.^54 Unless otherwise noted, phage propagation assays used an input of […] phage to infect a 2 mL culture of host cells."}, "Aβ42-GFP": {"tested_on": "Aβ42-GFP", "sequence (P05067 672-713)": "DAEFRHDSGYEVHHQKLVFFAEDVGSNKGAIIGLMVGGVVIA", "assay": "Aβ42-GFP folding reporter fluorescence assay", "format": "cell-based, E. coli", "conditions": "expressed from plasmid, 0.04 mM IPTG, compared with CKVWQLL (FIG. 3H)", "procedure": "(§1) Single colonies of S2060s transformed with pBL066c and SICLOPPS plasmid were used to make overnight cultures in 2×YT with maintenance antibiotics. The overnight culture was diluted (1:100) into 1 mL DRM on a 96 deep-well plate (VWR, 75870-796) with maintenance antibiotics and IPTG (0, 0.04, 0.2, or 1 mM). The diluted culture was incubated at 37° C. with shaking for 2.5 h, after which aTc (200 ng/mL) was added. 100 μL of the culture was transferred onto a black clear-bottom 96-well plate (VWR, 89131-680) to measure fluorescence signal 2, 3, 5 h after addition of aTc. GFP fluorescence signal (excitation wavelength=485 nm, emission wavelength=535 nm) was then measured using a Tecan M Plex microplate reader."}, "E. coli": {"tested_on": "E. coli", "assay": "Growth (OD600) of cells expressing SICLOPPS precursors upon IPTG induction", "conditions": "OD600, IPTG induction (FIG. 9B)", "procedure": "Data reflects 3 biological replicates plotted as individual values.\nas §1"}},
  "data": [
    {"substance": "CRVYQVL (cyclic; Circular) [cyclo-CRVYQVL]", "values": [
      {"measurement": "phage propagation activity (fitness) on Aβ42-T7n selection", "setting": "Aβ42-T7n", "result": "more modest fitness"},
      {"measurement": "activity in Aβ42-GFP folding reporter assay", "setting": "Aβ42-GFP", "result": "appeared inactive"},
      {"measurement": "effect of construct induction on cell growth", "setting": "E. coli", "result": "greatly decreased cell growth"}
    ]}
  ]
}
